Measurements as given in the supplement of paper PMC10567573.

B1: CDC25A (parent)
chain: TVAGKHQDLKYISPEIMASVLNGK

Variants of: B1
Test: protein stability index of a GFP-peptide fusion (GPS, HEK-293T) (PSI 1-6); higher = more stable
Settings: c terminus: a fixed tail appended
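Further: lentivirally expressed fusions sorted by FACS into six bins by GFP to DsRed ratio, PSI derived from sequencing read proportions per bin multiplied by bin number.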

Protein stability index, by site and new letter:
N22: H 2.96 | P 3.4 | Q 3.37 | D 3.54 | W 1.95 | M 2.66 | C 2.53 | F 1.93 | G 2.84 | T 2.88 | E 3.92 | I 2.77 | Y 2.41 | A 2.92 | R 2.71 | S 3.27 | K 2.94 | L 2.56 | V 2.55
L21: N 3.65 | Q 4 | T 3.84 | G 3.83 | C 3.54 | D 4.05 | K 4.25 | M 3.4 | H 4.05 | I 3.35 | A 3.83 | S 3.8 | V 3.54 | E 4.02 | P 4.08 | Y 3.18 | W 3.17 | R 3.7 | F 3.16
M17: N 3.74 | G 3.88 | F 2.78 | Q 3.73 | T 3.22 | L 2.64 | E 4.21 | Y 3.1 | S 4.12 | R 3.87 | D 3.89 | P 4 | V 3.42 | I 2.71 | W 2.46 | A 3.96 | C 3.42 | K 3.96 | H 3.8
Y11: N 3.86 | C 3.32 | D 4.38 | M 3.16 | E 4.09 | V 3.29 | G 3.87 | Q 3.47 | A 3.29 | S 3.71 | P 3.95 | T 3.79 | K 3.53 | I 3.52 | H 3.73 | L 3.26 | W 2.78 | F 2.77 | R 3.59
A18: Y 2.65 | T 3.74 | V 2.54 | W 1.97 | G 3.44 | S 3.3 | D 3.45 | N 3.1 | R 2.71 | E 4 | I 2.13 | P 3.6 | C 3.11 | Q 3.34 | M 2.33 | H 3.08 | L 2.53 | K 3.16 | F 2.73
I12: K 3.83 | T 3.76 | P 3.57 | H 3.29 | N 3.46 | L 3.16 | R 3.58 | Y 3.37 | W 2.64 | S 3.91 | A 3.49 | Q 4.04 | M 3.48 | F 2.94 | V 3.71 | C 3.23 | E 3.83 | D 4.16 | G 3.82
P14: E 3.49 | Y 2.79 | R 2.91 | T 2.55 | V 2.7 | M 2.02 | I 2.76 | N 3.29 | H 2.19 | F 2.24 | S 2.55 | W 2.13 | Q 2.87 | G 3.14 | A 2.41 | D 3.4 | L 2.4 | C 1.85 | K 2.96
S19: V 2.13 | Y 1.88 | N 3.61 | H 2.88 | D 3.41 | K 3.24 | A 3.1 | E 4.06 | P 3.65 | M 2.38 | L 1.86 | R 3.29 | Q 3.28 | T 2.83 | I 2.16 | W 1.94 | G 2.77 | C 2.46 | F 2.01
E15: F 2.07 | M 2.19 | L 1.99 | R 2.64 | N 2.95 | H 2.74 | Q 2.82 | V 1.89 | T 2.63 | G 3.08 | D 3.42 | K 2.68 | S 3.09 | P 3.05 | A 2.77
